Experimental data: the nanobody polyreactivity screen of Harvey et al. (2022)

Experiment: yeast display, Sf9 membrane polyspecificity reagent, FACS + sequencing; frameworks hold sequencing errors
Summary of the method: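 Galactose induction of a Saccharomyces cerevisiae BJ5465 synthetic nanobody display library ran 36–48 hours. The cells were then stained for 1 hour at 4 °C with 10% biotinylated, detergent-solubilized Sf9 membrane reagent, pulled down on streptavidin microbeads and FACS-sorted into low and high (top ~1%) gates on expression and reagent-binding fluorescence. Labels for polyreactivity follow the gate of origin.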

Sequence | polyreactivity (PSR sort gate)
QVQLVESWGGLVQAGGSLRLSCAASGRTFHSYAMGWYRQAPGKERELVAAITSSGGSTYYADSVKGRFTISRDNAKNTVYLQMNSLKPEDTAVYYCAAPYRYLSRGGEMGYWGQGTQVTVSS | high polyreactivity
QVQLVESGGGLVQAGGSLRLSCAASGRTFGPNAMGWYRQAPGKERELVAGISWRGTSTYYADSVKGRFTISRDNAKNTVYLQMNSLKPEDTAVYYCAKSVYGYGTLYDHWGQGTQVTVSS | high polyreactivity
QVQLVESGGGLVQAGGSLRLSCAASGSTFEHYTMGWYRQAPGKERELVAAINGRGGSTYYADSVKGRFTISRDNAKNTVYLQMNSLKPEDTAVYYCAAVYGFRDYDYWGQGTQVTVSS | high polyreactivity
QVQLVESGGGLVQAGGSLRLSCAASGRIFYFNAMGWYRPAPGKDRELVADISSGGRTNYADSVKGRFTISRDNAKNTVYLQMNSLKPEDTAVYYCNAEAYTSSGGYRGYDFDYWGQGTQVTVSS | low polyreactivity
QVQLVESGGGLVQAGGSHRLSCDASGRIFGPYAMGWYRQAPGKESELVATISWRGARTYYADSVKGRFTISRDNAKNTVYLQMNSLKPEDTAVDYCAATFYYSARFDYWGQGTQVTVSS | high polyreactivity
QVQLVESGGGLFQAGGSLRLSCAASGRTFAIYDMGWYRQAPGKEREVVAAIDYSDGSTYYADSVKGRFTISRDNAKNTVYLQMNSLKPEDTAVYYCAADYDAIYLWWGYDYWGQGTQVTVSS | low polyreactivity
QVQLVESGGGLVQAGGSLRLSCAASGSTFFFYAMGWYRQAPGKERELVAAISRSGVSTYYADSVKGRFTISRDNAKNNVYLQMNSLKPEDTAVYYCAKGGSRDRYGYWGQGTQVTVSS | high polyreactivity
QVQLVESGGGLVQAGGSLRLSCAASGRTLGYYAMGWYRQAPGTERELVAAISGSGGITYYADSVKGRFTISRDNAKNTVYLQMNSLKPEDTAVYFCNVDPTAKWFNYDSWGQGTQVTVSS | low polyreactivity
QVQLVESGGGLVQAGGSLRLSCAASGSTFTSYAMGWYRQAPGKERELVAGITSRGTSTYYADSVKGRFTISRDHAKNTVYLQMNSLKPEYTAVYYCAAVYLSYGPGSEDPLGYWGQGTQVTVSS | high polyreactivity
QVQLVESGGGLVQAGGSLRLTCAASGFTIYLYTMGWYRQAPGKERELVATISWSGGSTYYADSVKGRFTISRDNAKNTVYLHMNSLKPEDTAVYYCAKAYNGRYTWRYDYWGQGTQVTVSS | high polyreactivity
QVQLVESGGGFVQAGGSLRLSCAASGGTFYRYAMGWYRQAPGKERELVAVISRGLRTNYADSVKGRFTISRDNAKNTVYFQMNSLQPEDTAVYYCAAHQYRVYRHGFDYWGQGTQVTVSS | high polyreactivity
QVQLVETGGGLVQAGGSLRLSCAASGSTFYHNAMGWYRQAPGKERELVAAISIGGGRTYYADSVKGRFTISRDNAKNTVYLQMNSLKPEDTAVYYCAAGSPAVYGRGFNYWGQGTQVTVSS | low polyreactivity
QVQLVDSGGGLVQAGGSLRLSCAASGRIFYSYAMGWYRQAPGKERELVAAISRSGGRTYYADSVKARFTISRDNAKNTVYFQMNSLKPEDTAVYYCAADGRVGEEEYWGQGTQVTVSS | high polyreactivity
QVQLVESGGGLVQAGGSLRLTCAASGSIFWWYGVGWYRQAPGKERELVADITSGGGTYYADSVKGRFTISRDNAKNTVYLQMNSLKPEDTAVYYCAADDRAYRFDYYFDYWGQGTQVTVSS | low polyreactivity
QVQLVESGGGLVQAGGSLRLICAASGSTFVPYTMAWYRQAPGKERELVAAISGSGGTDYADSVKGRFTISRDNGKNTVYLQMNSLKPEDTAVYYCAAYSRVVPSFYYWGQGTQVTVSS | low polyreactivity
QVQLVESGGGLVQAGGSLRLSCAASGRIFYGYVMGLYRQAPGKERELVAAISLSGGRTYYADSVKGRFTISRDNAKNTVYLQMNSLKPEDTAVYYCAAEGIKGISYGHDYWGQGTQVTVSS | low polyreactivity
QVQLVESGGGLVQAGGSLRLSCAASGSIFWINAMGWYRQAPGKERELVADIDVSGGSTYYADSVKGRFTISRDNAKNTVYLQMNSLKPEDTAVYYCAADDYWAYLYYKTSEYDYWGQGTQVTVSS | low polyreactivity
QVQLVESGGGLVQAGGSLRLSCAASGSTFREYTMGWYRQAPGKERELVAAITNSGGSTYYADSVKGRFTISRDNAKNTVYLQMNSLKPEDTAVYYCAAEVGIVDYDYWGQGTQVTVSS | low polyreactivity
QVQLVESGGGLVQAGGSLRLSCAASGSTFFANAMGWYRQAPGKERELVAAITIGNTNYADSVKGRFTISRDNAKNTVYLQMNSLKPEDTAVYYCNASHVSHYRARDYWGQGTQVTVSS | low polyreactivity
QVQLVESGGGLVQAGGSLRLSCAASGSTFEYYAMGWYRQAPGKERELVAAITRRGGSTYYADSVKGRFTISRDNAKNTVYLQMNSLKPEDTAVYYCAAVPTQKSPRTHDFWGQGTQVTVSS | low polyreactivity
QVQLVESGGGLVQAGGSLRLSCDASGLTFSGYVMGWYRQAPGKESELVAAISLSGGSTYYADSVKGRFTISRDNAKNTVYLQMNSLKPEDTAVYYCAARTPFYNSYRRDYWGQGTQVTVSS | high polyreactivity
QVQLVESGGGLVQAGGSLRLSCAASGFTSRNYAMGWYSQARGKARELVAVFSKSGTSTYYADSVKGRFTISRDHAKNTVYLQMTSLKPEDTAVYYCSADTGHLSNSMDYWGQGTQVTVSS | high polyreactivity

Sequence | polyreactivity (PSR sort gate)
QVQLVESGGGLVQAGGSLRLSCAASGITFGDYAMGWYRQAPGKERELVAAISYGGGSTYYADSVKGSFTISRDNAKNTVYLQMNSLKPEDTAVYYCAADGWRTYGYYEYDYWGQGTQVTVSS | low polyreactivity
QVQLVESGGGLVQAGGSLRLSCAASGFTFYGNSMGWYRQATGKERELVAAITSGGSTYYADSVKGRFTISRDNAKNNVYLQMNSLKPEDTAVYYCAAVNGWRRVKRFDYWGQGTQVTVSS | high polyreactivity
QVQLVESGGGLVQAGGSLRLRCAASGSIFYRNAMGWYRQAPGTERELVAAISSDGSTNYADSVKGRFSISRDNAKNTVYLQMNSLKPEDTAVYYCNADYVQQVAKYQYGYEYGYWGQGTQVTVSS | low polyreactivity
QVQLVESGGGLVQAGGSLRISCAASGRTLFGYAMGWYRQAPGKERELVAAITYGATSTYADSVKGRFTISRDNAKNTVYLQMNSLKPEDTAVYYCNAYTPTDGFDYWGQGTQVTVSS | low polyreactivity
QVQLEESGGGLVQAGGSLRLSCAASGRTFFPYAMGWYRQAPGKERELVAAISHGGRTYYADSVKGRFTISRDNAKNTVYLQMNSLKPEDTAVYYCNALSARSYYWGQGTQVTVSS | high polyreactivity
QVQLVESGGGLVQAGGSLRLSCAASGRIFNYYDMGWYRQAPGKEREFVAAISWRGTSTRYADSVKGRFTISRDNAKNTVYLQMNSLKPEDTAVYYCAADDYARRFSFKYDYWGQGTQVTVSS | high polyreactivity
QVQLVESGGGVVQAGGSLRLSCAASGITFEYNAMGWYRQAPGKERELVAAISLSSGSTYYADSVKGRFTISRDNAKNTVYLQMNCLKPEDTAVYYCNADWQSYGYLWHSSLYYYWGQGTQVTVSS | low polyreactivity
QVQLVESGGGLVQAGGSLRLSCAASGITFGDYDMGWYRPAPGKERELVAAITYDGGTTYYADSVKGRFTISRDNAKNTVYLQMHSLKPEDTAVYYCNADSYRGLYDYWGQGTQVTVSS | low polyreactivity
QVQLVESGGGLVQAGGSLRLSCADSGFIFYDYTMGWYRQAPGKERELVAVISRGGSTYYADSVKGRFTISRDNAKNTVYLQMNSLNPEDSAVYYCAARPRWYTFTRQEYDYWGQGTQVTVSS | high polyreactivity
QVQLVESGGGLVQAGGSLRLSCAASGSTFPHNPMGCYRQAPGKERELVAAISSIGVRTYYADSVKGRFTISRDNAKNTVYLQMNSLKPEDTAVYYCAARQSQGDRYYYWGHGTQVTVSS | high polyreactivity
QVQLVETGRGLLQAGGTLLLTCAASGSIYTYAMGWYKQAHGTQRELVAAISRSGGRTYYADSVKGRFTNSRDNAKNTVYLQMNSLKPEDTAVYYCAALLLKDYDYLGQGTQVTVSS | low polyreactivity
QVQLVESGGGLVQAGGSLRLSCAASGSTFIYYTMGWYRQAPGKERELVAAIPSSGGSTYYADSVKGRFTISRDNAKNTVYLQMNSLKPEDTAVYYCAADGTYIKFAKLYRRYDYWGQGTLVTVSS | low polyreactivity
QVQLVESGGGLVQAGGSLRLSCAASGSTFRAYAMGWYRQAPGKEREFVADISWSGGSTYYADSVKGRFTISRDNAKNTVYLQMNSLKPEDTAVYYCAAEAAPLIIVTYDYWGQGTQVTVSS | low polyreactivity
QVQLVESGGGLVQAGGSLRLSCAASGSTFADYVMGWYRQAPGKERELVAAISRSGGSTYYADSEKGRFTISRDTAKNTVYLQTNSLKPEDTAVYYCAAVKARRYDYWGQGTQVTVSS | high polyreactivity
QVQLVESGGGLVQAGGSLRLSCAASGSTFIWNAMGSYRQAPGKERELVAAISSGGSTYYADSVKGRFTISRDNAKNTVYLQMNSLKPEDTAVYYCAAEYVYNVWEQRYAVYSTDDYWGQGTQVTVSS | low polyreactivity
QVQLVESGGGLVQAGGSLRLSCAASGSTFSRYAMGWYRQAPGKERELVAAITYRGARTYYADSVKGRFTISRDNAKNTVYLQMNSLKPEDTAVYYCNTVPPPYNFRYGYWGQGTQVTVSS | high polyreactivity
QVQLVESGGGLVQAGGSLRLSCAASGSTFYRYAMGWYRQAPGKERELVATISWTDGRTNYADSVKGRFTISRDNAKNPVYLQMNSLKPEDTAVYDCAARRYRRWYDYWGQGTQVTVSS | high polyreactivity
QVQLVESGGGLVQAGGSLRLICAASGRTNGVYVMGLYRQAPGKERELVAAIRKGVGSTYYADSVKGRFTISRDNAKNTVYLQMNSLKPEETAVYYCAADTRHYRYGYWGQGTQVTVSS | low polyreactivity
QVQLVESGGGLVQAGGRLRLRCAASGFILDTYAMGGYRQAAGNERELVAGITVRGGSTYYADSVKGRFTISRDNAKNTVYLQMNSLKPEDTAVYYCNAAQDRFGYRRSGYWYDYWGQGTQVTVSS | low polyreactivity
QVQLVESGGGLVQAGGSLRLSCAASGFIFRRYAMGWYRQAPGKERELVARISTIGGNTFYADSVKGRFTISRDTAKNTVYLQMNSLKPEDTAVYYCATTGGPSWRKYYSWGQGTQVTVSS | high polyreactivity
QVQLVESGGGLVQAGGSLRLSCAASGSIFAVNAMGWYRQAPGKERELVAAIDWSDGITYYADSVKGRFTISRDNAKNTVYLQMNSLKPEDTAVYYCAADATAYGWYVEQFSFYDNDYWGQGTQVTVSS | high polyreactivity
